Assay [1] deals with T1, α1B-1α2b human neuronal calcium channel subunit combination (human). The assay is described as follows: Bmax of 125I-ω-CgTx GVIA binding, against α1B-1 alone.
For assay [2], the target named is human neuronal calcium channel α1B-1 subunit alone (human). As to the kind of experiment: saturation binding of 125I-ω-CgTx GVIA to transfected HEK293 cells.
For assay [3], the target named is T1, α1B-1α2b human neuronal calcium channel …. Described as above.

CKSPGSSCSPTSYNCCRSCNPYTKRCY (modifications not checked) [125I-ω-CgTx GVIA, P01522 46-72]: the fold change of binding capacity in assay [1] came out at 3 fold. Moreover, in assay [2], the Bmax turned out to be 757 sites/cell and the Kd turned out to be 31.7 pM. In addition, in assay [3], the Bmax is 2260 sites/cell and the Kd stood at 84.6 pM.

Values taken from US6528630.
